The values that follow come from patent US7842293B2, “Compositions and methods using anti-CS1 antibodies to treat multiple myeloma” (Facet Biotech Corporation, priority 2006, dated 2010).

Assay [1] deals with CS1. Description: CS1 protein expression on L363 multiple myeloma cell line (flow cytometry). In kind it is cell-based. How it is done:
The effect of HuLuc63 and Thal treatment on the expression of CS1 in MM cell lines and mouse xenograft tumors was examined by flow cytometry and immunohistochemistry respectively, as described above.
(§1) CS1 protein expression was examined on the L363 multiple myeloma cell line. […] The combination of HuLuc63 with Thal was tested for anti-myeloma activity in vivo. L363 tumor-bearing mice were treated with HuLuc63, or isotype control antibody twice weekly for three weeks at 10 mg/kg. Thal was given 5 days a week at 50 mg/kg for a maximum of 15 doses to mice receiving either isotype control antibody or HuLuc63.
(In general: A flow cytometer gives signals particle by particle.)

The test system of assay [2] is L363 cells. In words: In vivo mouse multiple myeloma xenograft model, L363 tumors. Particulars: L363 tumor-bearing mice, HuLuc63 10 mg/kg twice weekly for three weeks. How it is done: (§2) Six- to eight-week old female IcrTac:ICR-Prkdcscid mice obtained from Taconic Farms (Germantown, N.Y.) were inoculated with 1×10^7 OPM2 or L363 cells (German Collection of Microorganisms and Cell Cultures, Braunschweig, Germany) into the lower right flank. Caliper measurements were performed twice weekly to calculate tumor volume using the following formula: L×W×H/2, where L (length) is the longest side of the tumor in the plane of the animal's back, W (width) is the longest measurement perpendicular to the length and in the same plane and H (height) is taken at the highest point perpendicular to the back of the animal. When tumors reached an average size of about 100 mm^3, animals were randomized into 3 groups of 8-10 mice each and were treated with 1 or 10 mg/kg of HuLuc63 or isotype control antibody administered intraperitoneally twice a week for a maximum of 6 doses.
(§3) Tumor growth was monitored for a period of 1-2 months. Animal work was carried out under NIH guidelines (“Guide for the Care and Use of Laboratory Animals”) using protocols approved by IACUC at PDL BioPharma.
as §1
L363 tumor-bearing mice were treated with HuLuc63, or isotype control antibody twice weekly for three weeks at 10 mg/kg. Thal was given 5 days a week at 50 mg/kg for a maximum of 15 doses and Dex was given twice a week at 10 mg/kg for a maximum of 6 doses to mice receiving either isotype control antibody or HuLuc63.
To determine if an anti-angiogenic drug can enhance the antitumor effects of HuLuc63, a combination of HuLuc63 with Bevacizumab was tested for anti-myeloma activity in vivo, as described above. L363 tumor-bearing mice were treated with HuLuc63, or isotype control antibody twice weekly for three weeks at 10 mg/kg. Bevacizumab was given twice a week at 0.5 mg/kg for a maximum of 6 doses to mice receiving either isotype control antibody or HuLuc63.

For assay [3], the system named is CS1. Description: CS1 protein expression on OPM2 multiple myeloma cell line (flow cytometry). The format is cell-based. How it is done: The effect of HuLuc63 and Dex treatment on the expression of CS1 in MM cell lines and mouse xenograft tumors was examined by flow cytometry and immunohistochemistry respectively.
CS1 protein expression was examined on the OPM2 multiple myeloma cell line. […] The combination of HuLuc63 with Dex was tested for anti-myeloma activity in vivo. OPM2 tumor-bearing mice were treated with sub-optimal doses of HuLuc63 (1 mg/kg), or isotype control antibody twice weekly for three weeks. Dex was given twice a week at 10 mg/kg to mice receiving either isotype control antibody or HuLuc63.

Assay [4] has as its system OPM2 cells. Description: In vivo mouse multiple myeloma xenograft model, OPM2 tumors. The settings on record: OPM2 tumor-bearing mice; HuLuc63 1 mg/kg (sub-optimal) twice weekly for three weeks; Dex 10 mg/kg twice a week; i.p.; FIG. 1. How it is done: as §2
Dex was administered intraperitoneally at a dose of 10 mg/kg twice a week for a maximum of 6 doses.
as §3
CS1 protein expression was examined on the OPM2 multiple myeloma cell line. […] The combination of HuLuc63 with Dex was tested for anti-myeloma activity in vivo. […]

Assay [5] concerns myeloma cells. Particulars: from U.S. Patent Publication No. 2005/0025763; cited from earlier work.
In assay [6] the test system is myeloma tumor. Particulars: myeloma mouse tumor model; from U.S. Patent Publication No. 2005/0025763; cited from earlier work.
[7] abbreviates: Thal 50 mg/kg 5 days a week, max 15 doses, FIG. 2.
The mark [8] stands for this setting: Bevacizumab 0.5 mg/kg twice a week, max 6 doses, FIG. 4.

For the molecule `O=C1CCC(N2C(=O)c3ccccc3C2=O)C(=O)N1` (centres unmarked) [Thal, Thalidomide, reference compound], the “change in CS1 expression pre- or post-treatment” value in assay [1] is on record as “No significant change in CS1 expression”. For the same molecule, the anti-tumor activity entry in assay [2] (setting [7]) is “Significant anti-tumor activity”.
Regarding “Bevacizumab: monoclonal antibody that targets the endothelial growth factor VEGF [reference compound]”, the anti-tumor activity result in assay [2] (setting [8]) is “did not exhibit significant anti-tumor activity”.

B1: HuLuc63: humanized recombinant monoclonal IgG1 antibody directed to human CS1; heavy chain variable region SEQ ID NO: 5, light chain variable region SEQ ID NO: 6 (antibody, listed as Homo sapiens, V domains shown)
VH: EVQLVESGGGLVQPGGSLRLSCAASGFDFSRYWMSWVRQAPGKGLEWIGEINPDSSTINYAPSLKDKFIISRDNAKNSLYLQMNSLRAEDTAVYYCARPDGNYWYFDVWGQGTLVTVSS
VL: DIQMTQSPSSLSASVGDRVTITCKASQDVGIAVAWYQQKPGKVPKLLIYWASTRHTGVPDRFSGSGSGTDFTLTISSLQPEDVATYYCQQYSSYPYTFGQGTKVEIK
Regarding B1, the “change in CS1 expression pre- or post-treatment” value in assay [3] and in assay [1] was “No significant change in CS1 expression” in each case. The anti-tumor activity result in assay [4] is “significant anti-tumor activity”; in assay [2] (setting [8]), “Significant anti-tumor activity”; in assay [2] (setting [7]), “Significant anti-tumor activity”; in assay [2] (Thal 50 mg/kg 5 days a week, Dex 10 mg/kg twice a week, FIG. 3) it was “significant anti-tumor activity”. In assay [5], the “lysis of myeloma cells via ADCC” value is recorded as “effectively mediates lysis of myeloma cells”. For the same molecule, the “reduction of tumor mass” value in assay [6] is reported as “more than 50%”.
